Measurements: US20140087995A1 (published 2014)
Numbered stars: 1 amine (or outer) side, 2 acyl side, 3 side chain; on linkers, the order of the positions; unused ones are H or OH. Bridge positions count the residues as written; N and C are the ends. Side chains are listed from the residue outwards. Ends that are not written are not given here. * marks the point of attachment. C20 diacid = O=C(O)CCCCCCCCCCCCCCCCCCC(=O)*; γGlu = O=C(O)[C@H](CCC(=O)[*:2])N[*:1]

T1: human amylin receptor (amylin 3(a) receptor: human calcitonin receptor co-expressed with RAMP-3) (human, UniProt P30988 25-474; O60896 24-148, limits assumed)
T1 sequence (looked up) 1: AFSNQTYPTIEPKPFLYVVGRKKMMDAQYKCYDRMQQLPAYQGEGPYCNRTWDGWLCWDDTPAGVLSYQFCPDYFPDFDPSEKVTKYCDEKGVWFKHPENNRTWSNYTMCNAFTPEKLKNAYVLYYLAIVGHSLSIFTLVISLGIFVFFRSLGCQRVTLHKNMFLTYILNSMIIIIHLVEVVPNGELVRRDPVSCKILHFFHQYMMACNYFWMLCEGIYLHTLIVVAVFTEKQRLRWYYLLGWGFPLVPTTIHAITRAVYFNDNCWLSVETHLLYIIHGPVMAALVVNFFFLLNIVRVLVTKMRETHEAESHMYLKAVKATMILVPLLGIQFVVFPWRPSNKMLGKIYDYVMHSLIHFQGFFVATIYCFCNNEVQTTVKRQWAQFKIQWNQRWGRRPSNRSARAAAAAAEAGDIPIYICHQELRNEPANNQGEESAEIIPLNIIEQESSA
T1 sequence (looked up) 2: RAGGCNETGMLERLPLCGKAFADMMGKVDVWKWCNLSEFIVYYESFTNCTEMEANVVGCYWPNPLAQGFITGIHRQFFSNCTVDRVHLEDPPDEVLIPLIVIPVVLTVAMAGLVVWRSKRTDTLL

T2: human calcitonin receptor (human, UniProt P30988 25-474)
T2 sequence (looked up): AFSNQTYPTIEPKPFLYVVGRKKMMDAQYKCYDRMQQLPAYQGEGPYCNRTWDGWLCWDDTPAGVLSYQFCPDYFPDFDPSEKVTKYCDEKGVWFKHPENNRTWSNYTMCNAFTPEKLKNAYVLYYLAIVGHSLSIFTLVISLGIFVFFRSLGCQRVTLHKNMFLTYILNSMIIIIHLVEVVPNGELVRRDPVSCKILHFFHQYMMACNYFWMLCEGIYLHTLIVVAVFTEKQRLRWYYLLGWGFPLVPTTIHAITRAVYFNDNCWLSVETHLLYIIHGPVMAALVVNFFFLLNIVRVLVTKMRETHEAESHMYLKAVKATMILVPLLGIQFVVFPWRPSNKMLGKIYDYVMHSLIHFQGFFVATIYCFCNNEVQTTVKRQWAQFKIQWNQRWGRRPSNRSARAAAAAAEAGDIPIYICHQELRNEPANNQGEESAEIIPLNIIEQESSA


Legend:
[1] = biological target: T1, human amylin receptor (amylin 3(a) …); assay: cell-based or functional assay
[2] = biological target: T2, human calcitonin receptor; assay: cell-based or functional assay

Ratio hCT/hAmylin funct. [1]	hAmylin-R funct. EC50 [1] [nM]	hCTR funct. EC50 [2] [nM]	Binder
64.4	0.298	19.2	K([γGlu-γGlu-C20 diacid])CNTATCATQRLANFLRHSSPNFGAIPSSTNVGHNTY-NH2 (disulfide 2-7; N-terminus assumed; SMILES CC[C@H](C)[C@H](NC(=O)[C@H](C)NC(=O)CNC(=O)[C@H](Cc1ccccc1)NC(=O)[C@H](CC(N)=O)NC(=O)[C@@H]1CCCN1C(=O)[C@H](CO)NC(=O)[C@H](CO)NC(=O)[C@H](Cc1c[nH]cn1)NC(=O)[C@H](CCCNC(=N)N)NC(=O)[C@H](CC(C)C)NC(=O)[C@H](Cc1ccccc1)NC(=O)[C@H](CC(N)=O)NC(=O)[C@H](C)NC(=O)[C@H](CC(C)C)NC(=O)[C@H](CCCNC(=N)N)NC(=O)[C@H](CCC(N)=O)NC(=O)[C@@H](NC(=O)[C@H](C)NC(=O)[C@@H]1CSSC[C@H](NC(=O)[C@@H](N)CCCCNC(=O)CC[C@H](NC(=O)CC[C@H](NC(=O)CCCCCCCCCCCCCCCCCCC(=O)O)C(=O)O)C(=O)O)C(=O)N[C@@H](CC(N)=O)C(=O)N[C@@H]([C@@H](C)O)C(=O)N[C@@H](C)C(=O)N[C@@H]([C@@H](C)O)C(=O)N1)[C@@H](C)O)C(=O)N1CCC[C@H]1C(=O)N[C@@H](CO)C(=O)N[C@@H](CO)C(=O)N[C@H](C(=O)N[C@@H](CC(N)=O)C(=O)N[C@H](C(=O)NCC(=O)N[C@@H](Cc1c[nH]cn1)C(=O)N[C@@H](CC(N)=O)C(=O)N[C@H](C(=O)N[C@@H](Cc1ccc(O)cc1)C(N)=O)[C@@H](C)O)C(C)C)[C@@H](C)O, also called compound 86)
8.5	0.773	6.55	K([γGlu-γGlu-C20 diacid])CNTATCATQRLAEFLRHSSPNFGAIPSSTNVGRNTY-NH2 (disulfide 2-7; N-terminus assumed; SMILES CC[C@H](C)[C@H](NC(=O)[C@H](C)NC(=O)CNC(=O)[C@H](Cc1ccccc1)NC(=O)[C@H](CC(N)=O)NC(=O)[C@@H]1CCCN1C(=O)[C@H](CO)NC(=O)[C@H](CO)NC(=O)[C@H](Cc1c[nH]cn1)NC(=O)[C@H](CCCNC(=N)N)NC(=O)[C@H](CC(C)C)NC(=O)[C@H](Cc1ccccc1)NC(=O)[C@H](CCC(=O)O)NC(=O)[C@H](C)NC(=O)[C@H](CC(C)C)NC(=O)[C@H](CCCNC(=N)N)NC(=O)[C@H](CCC(N)=O)NC(=O)[C@@H](NC(=O)[C@H](C)NC(=O)[C@@H]1CSSC[C@H](NC(=O)[C@@H](N)CCCCNC(=O)CC[C@H](NC(=O)CC[C@H](NC(=O)CCCCCCCCCCCCCCCCCCC(=O)O)C(=O)O)C(=O)O)C(=O)N[C@@H](CC(N)=O)C(=O)N[C@@H]([C@@H](C)O)C(=O)N[C@@H](C)C(=O)N[C@@H]([C@@H](C)O)C(=O)N1)[C@@H](C)O)C(=O)N1CCC[C@H]1C(=O)N[C@@H](CO)C(=O)N[C@@H](CO)C(=O)N[C@H](C(=O)N[C@@H](CC(N)=O)C(=O)N[C@H](C(=O)NCC(=O)N[C@@H](CCCNC(=N)N)C(=O)N[C@@H](CC(N)=O)C(=O)N[C@H](C(=O)N[C@@H](Cc1ccc(O)cc1)C(N)=O)[C@@H](C)O)C(C)C)[C@@H](C)O, also called compound 88)
